Reference: paper PMC10397247
Like-named read-outs stand apart in the source and are kept apart here.

T1: 4H56-bH
T1 chain: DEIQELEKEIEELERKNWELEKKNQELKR

T2: 4H730-bH
T2 chain: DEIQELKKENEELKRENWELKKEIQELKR

T3: 4H796-bH
T3 chain: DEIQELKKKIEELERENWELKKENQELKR

T4: 4H932-bH
T4 chain: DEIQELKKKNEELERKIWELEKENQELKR

T5: 4H949-bH
T5 chain: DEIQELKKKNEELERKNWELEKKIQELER

T6: 4H2505-AA
T6 chain: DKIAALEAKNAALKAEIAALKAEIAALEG

T7: 4H2575-AA
T7 chain: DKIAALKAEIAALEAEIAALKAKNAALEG

T8: 4H2617-AA
T8 chain: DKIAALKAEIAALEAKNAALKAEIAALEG

T9: 4H2642-AA
T9 chain: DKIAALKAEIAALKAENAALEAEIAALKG

T10: 4H2729-AA
T10 chain: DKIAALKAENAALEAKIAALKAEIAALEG

T11: 4H2754-AA
T11 chain: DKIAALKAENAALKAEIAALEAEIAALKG

T12: 4H2837-AA
T12 chain: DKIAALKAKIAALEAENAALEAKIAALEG

T13: 4H2883-AA
T13 chain: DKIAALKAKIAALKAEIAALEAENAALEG

T14: 4H2944-AA
T14 chain: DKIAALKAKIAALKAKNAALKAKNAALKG

T15: 4H2949-AA
T15 chain: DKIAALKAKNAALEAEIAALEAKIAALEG

T16: 4H3112-AA
T16 chain: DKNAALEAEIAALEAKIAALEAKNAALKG

T17: 4H317-AA
T17 chain: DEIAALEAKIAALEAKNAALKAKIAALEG

T18: 4H3343-AA
T18 chain: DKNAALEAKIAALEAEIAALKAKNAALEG

T19: 4H335-AA
T19 chain: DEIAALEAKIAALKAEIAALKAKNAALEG

T20: 4H342-AA
T20 chain: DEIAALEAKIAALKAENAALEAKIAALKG

T21: 4H3427-AA
T21 chain: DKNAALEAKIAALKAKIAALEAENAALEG

T22: 4H3606-AA
T22 chain: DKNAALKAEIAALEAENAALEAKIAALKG

T23: 4H3627-AA
T23 chain: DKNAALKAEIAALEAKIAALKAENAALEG

T24: 4H3655-AA
T24 chain: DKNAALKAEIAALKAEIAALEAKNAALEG

T25: 4H3844-AA
T25 chain: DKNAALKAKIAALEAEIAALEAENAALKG

T26: 4H3921-AA
T26 chain: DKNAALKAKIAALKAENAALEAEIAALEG

T27: 4H429-AA
T27 chain: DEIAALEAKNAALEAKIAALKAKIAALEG

T28: 4H454-AA
T28 chain: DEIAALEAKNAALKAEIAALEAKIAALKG

T29: 4H48-AA
T29 chain: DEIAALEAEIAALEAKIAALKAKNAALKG

T30: 4H566-AA
T30 chain: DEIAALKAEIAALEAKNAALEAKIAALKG

T31: 4H605-AA
T31 chain: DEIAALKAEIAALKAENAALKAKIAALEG

T32: 4H678-AA
T32 chain: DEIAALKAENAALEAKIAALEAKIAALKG

T33: 4H717-AA
T33 chain: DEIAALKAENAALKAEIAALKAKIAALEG

T34: 4H780-AA
T34 chain: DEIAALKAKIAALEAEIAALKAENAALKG

T35: 4H794-AA
T35 chain: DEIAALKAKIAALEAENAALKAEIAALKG

T36: 4H881-AA
T36 chain: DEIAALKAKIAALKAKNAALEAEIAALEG

T37: 4H906-AA
T37 chain: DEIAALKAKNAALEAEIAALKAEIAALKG

T38: 4H993-AA
T38 chain: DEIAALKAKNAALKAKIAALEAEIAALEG

T39: 4H2466-AA
T39 chain: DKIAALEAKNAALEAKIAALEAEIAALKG

T40: P8mS
T40 chain: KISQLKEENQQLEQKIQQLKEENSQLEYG

T41: P9
T41 chain: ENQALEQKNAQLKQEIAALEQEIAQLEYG


Legend:
4H56-bH = target: T1, 4H56-bH; assay: two-hybrid library CCNG1;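 further: natural log of median RNA to DNA barcode read ratio; higher means stronger binding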
4H730-bH = target: T2, 4H730-bH; assay: two-hybrid library CCNG1;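 further: natural log of median RNA to DNA barcode read ratio; higher means stronger binding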
4H796-bH = target: T3, 4H796-bH; assay: two-hybrid library CCNG1;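 further: natural log of median RNA to DNA barcode read ratio; higher means stronger binding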
4H932-bH = target: T4, 4H932-bH; assay: two-hybrid library CCNG1;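 further: natural log of median RNA to DNA barcode read ratio; higher means stronger binding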
4H949-bH = target: T5, 4H949-bH; assay: two-hybrid library CCNG1
4H2505-AA = target: T6, 4H2505-AA; assay: two-hybrid library CCmax
4H2575-AA = target: T7, 4H2575-AA; assay: two-hybrid library CCmax; conditions: mean of both orientations
4H2617-AA = target: T8, 4H2617-AA; assay: two-hybrid library CCmax; conditions: mean of both orientations
4H2642-AA = target: T9, 4H2642-AA; assay: two-hybrid library CCmax; conditions: mean of both orientations
4H2729-AA = target: T10, 4H2729-AA; assay: two-hybrid library CCmax; conditions: mean of both orientations
4H2754-AA = target: T11, 4H2754-AA; assay: two-hybrid library CCmax; conditions: mean of both orientations
4H2837-AA = target: T12, 4H2837-AA; assay: two-hybrid library CCmax; conditions: mean of both orientations
4H2883-AA = target: T13, 4H2883-AA; assay: two-hybrid library CCmax; conditions: mean of both orientations
4H2944-AA = target: T14, 4H2944-AA; assay: two-hybrid library CCmax; conditions: mean of both orientations
4H2949-AA = target: T15, 4H2949-AA; assay: two-hybrid library CCmax; conditions: mean of both orientations
4H3112-AA = target: T16, 4H3112-AA; assay: two-hybrid library CCmax; conditions: mean of both orientations
4H317-AA = target: T17, 4H317-AA; assay: two-hybrid library CCmax; conditions: mean of both orientations
4H3343-AA = target: T18, 4H3343-AA; assay: two-hybrid library CCmax; conditions: mean of both orientations
4H335-AA = target: T19, 4H335-AA; assay: two-hybrid library CCmax; conditions: mean of both orientations
4H342-AA = target: T20, 4H342-AA; assay: two-hybrid library CCmax; conditions: mean of both orientations
4H3427-AA = target: T21, 4H3427-AA; assay: two-hybrid library CCmax; conditions: mean of both orientations
4H3606-AA = target: T22, 4H3606-AA; assay: two-hybrid library CCmax; conditions: mean of both orientations
4H3627-AA = target: T23, 4H3627-AA; assay: two-hybrid library CCmax
4H3655-AA = target: T24, 4H3655-AA; assay: two-hybrid library CCmax; conditions: mean of both orientations
4H3844-AA = target: T25, 4H3844-AA; assay: two-hybrid library CCmax; conditions: mean of both orientations
4H3921-AA = target: T26, 4H3921-AA; assay: two-hybrid library CCmax; conditions: mean of both orientations
4H429-AA = target: T27, 4H429-AA; assay: two-hybrid library CCmax
4H454-AA = target: T28, 4H454-AA; assay: two-hybrid library CCmax; conditions: mean of both orientations
4H48-AA = target: T29, 4H48-AA; assay: two-hybrid library CCmax; conditions: mean of both orientations
4H566-AA = target: T30, 4H566-AA; assay: two-hybrid library CCmax; conditions: mean of both orientations
4H605-AA = target: T31, 4H605-AA; assay: two-hybrid library CCmax; conditions: mean of both orientations
4H678-AA = target: T32, 4H678-AA; assay: two-hybrid library CCmax; conditions: mean of both orientations
4H717-AA = target: T33, 4H717-AA; assay: two-hybrid library CCmax; conditions: mean of both orientations
4H780-AA = target: T34, 4H780-AA; assay: two-hybrid library CCmax; conditions: mean of both orientations
4H794-AA = target: T35, 4H794-AA; assay: two-hybrid library CCmax; conditions: mean of both orientations
4H881-AA = target: T36, 4H881-AA; assay: two-hybrid library CCmax; conditions: mean of both orientations
4H906-AA = target: T37, 4H906-AA; assay: two-hybrid library CCmax; conditions: mean of both orientations
4H993-AA = target: T38, 4H993-AA; assay: two-hybrid library CCmax; conditions: mean of both orientations
4H2466-AA = target: T39, 4H2466-AA; assay: two-hybrid library CCmax; conditions: mean of both orientations
P8mS = target: T40, P8mS; assay: two-hybrid library CC1
P9 = target: T41, P9; assay: two-hybrid library CC1; conditions: mean of both orientations

interaction score (4H2575-AA)	interaction score (4H2617-AA)	interaction score (4H2642-AA)	interaction score (4H2729-AA)	interaction score (4H2754-AA)	interaction score (4H2837-AA)	interaction score (4H2883-AA)	interaction score (4H2944-AA)	interaction score (4H2949-AA)	interaction score (4H3112-AA)	interaction score (4H317-AA)	interaction score (4H3343-AA)	interaction score (4H335-AA)	interaction score (4H342-AA)	interaction score (4H3427-AA)	interaction score (4H3606-AA)	interaction score (4H3655-AA)	interaction score (4H3844-AA)	interaction score (4H3921-AA)	interaction score (4H454-AA)	Binder	further results
–	–	–	–	–	–	–	–	–	–	–	–	–	–	–	–	–	–	–	–	DEIQELEKEIEELERKNWELEKKNQELKR [4H56-bH]	interaction score (4H56-bH): -0.661; interaction score (4H730-bH): -0.307; interaction score (4H796-bH): 0.682; interaction score (4H932-bH): -0.0294; interaction score (4H949-bH): -1.15
-0.277	-0.92	-0.234	2.02	1.69	1.03	-0.918	-1.9	1.68	-1.11	-1.65	-1.59	-1.01	1.06	-1.04	1.04	-1.61	-1.01	-0.328	2.21	DKIAALEAKNAALKAEIAALKAEIAALEG [4H2505-AA]	interaction score (4H2505-AA): 1.09; interaction score (4H3627-AA): -1.54; interaction score (4H429-AA): 1.6; interaction score (4H48-AA): 0.908; interaction score (4H566-AA): -0.341; interaction score (4H605-AA): -1.14; interaction score (4H678-AA): 1.78; interaction score (4H717-AA): -0.029; interaction score (4H780-AA): -1.6; interaction score (4H794-AA): -0.881; interaction score (4H881-AA): -1.43; interaction score (4H906-AA): 0.636; interaction score (4H993-AA): -1.53
-1.03	1.93	1.82	-0.695	-1.23	1.73	-1.21	-0.902	1.51	-1.21	1.92	-1.29	-1.56	2.37	-1.45	2.32	-1.41	1.55	-1.77	-0.951	DKIAALEAKIAALKAENAALKAEIAALEG [4H2393-AA]	interaction score (4H2466-AA): 0.221; interaction score (4H2505-AA; mean of both orientations): -1.59; interaction score (4H3627-AA; mean of both orientations): -1.42; interaction score (4H429-AA; mean of both orientations): -1.55; interaction score (4H48-AA): -0.193; interaction score (4H566-AA): 1.33; interaction score (4H605-AA): 0.852; interaction score (4H678-AA): -0.574; interaction score (4H717-AA): -1.55; interaction score (4H780-AA): -1.42; interaction score (4H794-AA): 1.33; interaction score (4H881-AA): -1; interaction score (4H906-AA): -1.04; interaction score (4H993-AA): -1.5
–	–	–	–	–	–	–	–	–	–	–	–	–	–	–	–	–	–	–	–	KISQLKEENQQLEQKIQQLKEENSQLEYG [P8mS]	interaction score (P8mS): -3.02; interaction score (P9): -2.35
